In patent publication US20180094274A1 (BOARD OF TRUSTEES OF MICHIGAN STATE UNIVERSITY, published 2018):

T1: full length AtWRI1 (bait fusion, yeast two-hybrid) (Arabidopsis thaliana, UniProt Q6X5Y6 1-430)
T1 construct: Transcription factor expressed in yeast as bait fusion; also called Arabidopsis thaliana WRINKLED1; not shown: bait fusion partner of the Y2H vector
T1 sequence: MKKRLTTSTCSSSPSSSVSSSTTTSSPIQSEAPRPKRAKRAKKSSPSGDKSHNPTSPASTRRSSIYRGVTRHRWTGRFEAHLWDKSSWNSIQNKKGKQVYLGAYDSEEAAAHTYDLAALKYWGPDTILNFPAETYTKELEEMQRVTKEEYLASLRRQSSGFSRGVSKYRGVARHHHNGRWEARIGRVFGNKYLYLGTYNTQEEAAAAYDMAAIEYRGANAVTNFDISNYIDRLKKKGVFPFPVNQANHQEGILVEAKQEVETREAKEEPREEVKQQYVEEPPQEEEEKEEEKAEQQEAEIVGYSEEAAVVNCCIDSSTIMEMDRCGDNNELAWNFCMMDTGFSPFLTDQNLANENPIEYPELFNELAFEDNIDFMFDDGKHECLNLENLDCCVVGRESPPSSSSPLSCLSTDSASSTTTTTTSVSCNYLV

T2: BPM1 (yeast two-hybrid) (Arabidopsis, UniProt Q8L765 1-407)
T2 construct: also called E3 ligase bridge protein BPM1; E3 ligase linker BPM protein; not shown: Y2H fusion partner
T2 sequence (looked up): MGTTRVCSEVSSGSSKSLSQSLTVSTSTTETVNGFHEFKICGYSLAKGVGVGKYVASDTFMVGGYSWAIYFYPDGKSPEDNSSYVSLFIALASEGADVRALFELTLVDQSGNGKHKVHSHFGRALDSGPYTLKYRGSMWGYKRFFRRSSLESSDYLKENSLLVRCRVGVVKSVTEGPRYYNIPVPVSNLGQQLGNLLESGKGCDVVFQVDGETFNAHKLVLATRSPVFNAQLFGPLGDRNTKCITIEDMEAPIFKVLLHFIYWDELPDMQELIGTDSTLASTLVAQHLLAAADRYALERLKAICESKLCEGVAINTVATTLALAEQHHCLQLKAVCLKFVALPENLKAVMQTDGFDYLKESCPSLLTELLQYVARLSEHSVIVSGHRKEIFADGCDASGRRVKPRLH

T3: nYFP-AtWRI1 (Arabidopsis thaliana, UniProt Q6X5Y6 1-430)
T3 construct: BiFC construct transiently produced in N. benthamiana leaves; also called 35S:nYFP-AtWRI1; not shown: N-terminal half of YFP from the BiFC vector
T3 sequence: T1 sequence

B1: 14-3-3ν (yeast two-hybrid) (other, Arabidopsis, UniProt Q96300 1-265, looked up)
chain: MSSSREENVYLAKLAEQAERYEEMVEFMEKVAKTVDTDELTVEERNLLSVAYKNVIGARRASWRIISSIEQKEESRGNDDHVSIIKDYRGKIETELSKICDGILNLLDSHLVPTASLAESKVFYLKMKGDYHRYLAEFKTGAERKEAAESTLVAYKSAQDIALADLAPTHPIRLGLALNFSVFYYEILNSPDRACSLAKQAFDEAISELDTLGEESYKDSTLIMQLLRDNLTLWNSDINDEAGGDEIKEASKHEPEEGKPAETGQ
notes: also called 14-3-3 nu; not shown: Y2H fusion partner
B2: AtWRI1^1-92 (yeast two-hybrid) (other)
chain: MKKRLTTSTCSSSPSSSVSSSTTTSSPIQSEAPRPKRAKRAKKSSPSGDKSHNPTSPASTRRSSIYRGVTRHRWTGRFEAHLWDKSSWNSIQ
notes: Truncated AtWRI1 variant; not shown: Y2H fusion partner
B3: AtWRI1^1-77 (yeast two-hybrid) (other)
chain: MKKRLTTSTCSSSPSSSVSSSTTTSSPIQSEAPRPKRAKRAKKSSPSGDKSHNPTSPASTRRSSIYRGVTRHRWTGR
notes: as for B2
B4: nYFP-AtWRI1^1-366 (other)
chain: MKKRLTTSTCSSSPSSSVSSSTTTSSPIQSEAPRPKRAKRAKKSSPSGDKSHNPTSPASTRRSSIYRGVTRHRWTGRFEAHLWDKSSWNSIQNKKGKQVYLGAYDSEEAAAHTYDLAALKYWGPDTILNFPAETYTKELEEMQRVTKEEYLASLRRQSSGFSRGVSKYRGVARHHHNGRWEARIGRVFGNKYLYLGTYNTQEEAAAAYDMAAIEYRGANAVTNFDISNYIDRLKKKGVFPFPVNQANHQEGILVEAKQEVETREAKEEPREEVKQQYVEEPPQEEEEKEEEKAEQQEAEIVGYSEEAAVVNCCIDSSTIMEMDRCGDNNELAWNFCMMDTGFSPFLTDQNLANENPIEYPELFNEL
notes: also called AtWRI1^Δ367-430; not shown: N-terminal half of YFP from the BiFC vector
B5: cYFP-BPM1 (other, Arabidopsis, UniProt Q8L765 1-407, looked up)
chain: T2 sequence (looked up)
notes: BiFC construct transiently produced in N. benthamiana leaves; also called 35S:cYFP-BPM1; BTB/POZ and MATH domain-containing (BPM) 1; not shown: C-terminal half of YFP from the BiFC vector

Assays:
[1] = biological target: T1, full length AtWRI1 (bait fusion, yeast …); assay: yeast two-hybrid
BPM1 (yeast two-hybrid) [2] = biological target: T2, BPM1 (yeast two-hybrid); assay: yeast two-hybrid with truncated AtWRI1 variants
BPM1 (yeast two-hybrid) [3] = biological target: T2, BPM1 (yeast two-hybrid); assay: yeast two-hybrid
cYFP-BPM1 = biological target: B5; assay: BiFC, transient expression in N. benthamiana leaves
Excerpt: (§1) Confocal microscopy and bimolecular fluorescence complementation (BiFC) assays used 35S:YFP-AtWRI1 (including truncated AtWRI1 variants and AtWRI1 site-directed mutants fused to yellow fluorescent protein (YFP)) were generated through GATEWAY system. For BiFC experiments, 35S:nYFP-AtWRI1 (including truncated AtWRI1 variants) and 35S:cYFP-BPM1 were similarly assembled. Constructs were transformed into A. tumefaciens (GV3101 strain). For BiFC experiments to test protein-protein interaction, A. tumefaciens harboring each nYFP and cYFP fusion construct was prepared (each culture was re-suspended to 1.2 OD₆₀₀ in MMA buffer) and adjusted to 0.4 OD₆₀₀ prior to injection into plant leaves. Healthy leaves of N. benthamiana plants were infiltrated by bacterial suspensions with a 1-mL blunt-end syringe. Plants were returned to growth chambers and YFP fluorescence signals were captured by a confocal microscope 2 to 3 d after bacterial infiltration. YFP fluorescence signal intensity was analyzed using ImageJ software.
(§2) A bimolecular fluorescence complementation (BiFC) assay was used to investigate the interaction between AtWRI1 and a BPM protein (BPM1). AtWRI1 and BPM1 were subcloned to BiFC vectors which generated nYFP-AtWRI1 and cYFP-BPM1 (half N-terminus of YFP and half C-terminus of YFP, respectively). […]

nYFP-AtWRI1 = biological target: T3, nYFP-AtWRI1; assay: as above
Excerpt: as §1, §2

Binder: B1
- binding result [1]: binds

Binder: B2
- binding result (BPM1 (yeast two-hybrid) [2]): binds

Binder: B3
- binding result (BPM1 (yeast two-hybrid) [3]): no binding

Binder: B4
- binding result (cYFP-BPM1): binds

Binder: B5
- binding result (nYFP-AtWRI1): binds
